# Values of other authors, collected in PMC3042137.
# Molecular target: JIP1 (L-pepJIP1) (Homo sapiens) (UniProt Q9UQF2)
# Experiment: ITC
# UniProt Q9UQF2, sequence (Q9UQF2 whole entry): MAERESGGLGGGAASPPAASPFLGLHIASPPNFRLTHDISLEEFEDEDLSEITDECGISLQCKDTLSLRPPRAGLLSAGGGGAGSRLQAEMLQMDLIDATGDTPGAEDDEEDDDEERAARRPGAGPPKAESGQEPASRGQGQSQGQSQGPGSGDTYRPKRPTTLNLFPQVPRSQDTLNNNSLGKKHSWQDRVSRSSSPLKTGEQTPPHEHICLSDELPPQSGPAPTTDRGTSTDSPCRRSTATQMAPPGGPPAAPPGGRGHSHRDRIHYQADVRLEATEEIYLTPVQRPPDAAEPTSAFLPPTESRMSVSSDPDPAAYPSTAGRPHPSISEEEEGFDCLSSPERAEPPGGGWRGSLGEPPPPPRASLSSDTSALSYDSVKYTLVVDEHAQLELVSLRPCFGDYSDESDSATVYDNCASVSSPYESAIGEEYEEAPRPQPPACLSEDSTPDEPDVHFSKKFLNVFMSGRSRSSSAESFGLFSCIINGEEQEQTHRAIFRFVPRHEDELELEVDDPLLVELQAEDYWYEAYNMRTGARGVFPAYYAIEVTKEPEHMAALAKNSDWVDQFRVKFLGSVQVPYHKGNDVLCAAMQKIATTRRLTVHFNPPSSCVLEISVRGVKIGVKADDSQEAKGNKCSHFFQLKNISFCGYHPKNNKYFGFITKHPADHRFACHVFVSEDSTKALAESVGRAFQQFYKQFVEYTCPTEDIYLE
substance,measurement,value
JNK1 (from UniProt P45983),Kd,0.42 µM
